{"source": "paper PMC4949581", "proteins": {"B1": {"name": "TxGH116 β-glucosidase (Thermoanaerobacterium xylanolyticum LX-11) (protein)", "chain": "LTGCSEKININEDKISHKIDIPDSAWTIGIGEKFKNAGHPNVKYPMIDDSYVQGAPLGGFGAGTIGRTYNGGFSRWHLEIGKNKYTTVYANQFSVFQKVEGNKDGVAQVLYAGEPENGYLSSWKWDYPKESGMYYALYPNSWYTYTNKDLPVQLAVKQFSPIIPYNYKETSYPVAVFKWTAYNPTNKNVDVSIMFTWQNMIGFFGKQVNVNSGNFNKIIKDKSKDSEIVAAVMGNISNDNEEWNGEYSIGVKKVPGVDISYKAKFVTTGDGSDLWHEFSKNGILDNKDDETPTKQDGIGSAIAVNFKLQPGQTIEVPFALSWDLPIMKFGGGDKWYKMYTKYFGKNGKNSFAILKEALNNYQKWEKMIDDWQKPILSNKSKPDWYKTALFNELYYLADGGTAWENGKVGEKDKRTNNMFGLLECFDYNYYETLDVRFYGSFPLVMLWPDIEKQVMRQFADTINVQDSSEFKVGSNGAMAVKKVQGMIPHDLGSSYALPWIKINAYDWQNPNIWKDLNSKYVLLVYRDYVLTGKTDKEFLKYTWKSVKTALDKLKEMDKDNDGIPDNEGIPDQTYDTWSMKGTSAYCGSLWLAALKAAQEIGKVLKDNEAYIKYNEWYKIAQQNFEKELWNGEYYNFDTESDHKDSIMADQLAGQWYADILRLGDILPKDHVQKALKKIYEFNVMKFENGKMGAVNGMRPDGIVDESDIQAQEVWTGVTYALASFMKYRGMTEEAYNTAYGVYKMTYDKSGKGYWFRTPEAWTKDGNYRASMYMRPLSIWSMEVNYNEV"}}, "key": {"purified protein [1]": {"substrate": "O=[N+]([O-])c1ccc(O[C@@H]2O[C@H](CO)[C@@H](O)[C@H](O)[C@H]2O)cc1", "assay": "purified protein", "details": "60.0 °C"}, "purified protein [2]": {"substrate": "OC[C@H]1O[C@@H](O[C@H]2[C@H](O)[C@@H](CO)OC(O)[C@@H]2O)[C@H](O)[C@@H](O)[C@@H]1O", "assay": "purified protein", "details": "60.0 °C"}}}
{"protein": "B1", "values": [{"measurement": "Km", "setting": "purified protein [1]", "value": "180 ± 8", "unit": "µM"}, {"measurement": "kcat", "setting": "purified protein [1]", "value": "49 ± 0.8", "unit": "s⁻¹"}, {"measurement": "kcat/Km", "setting": "purified protein [1]", "value": 272000, "unit": "M⁻¹ s⁻¹"}, {"measurement": "Km", "setting": "purified protein [2]", "value": "270 ± 18", "unit": "µM"}, {"measurement": "kcat", "setting": "purified protein [2]", "value": "41.4 ± 0.7", "unit": "s⁻¹"}, {"measurement": "kcat/Km", "setting": "purified protein [2]", "value": 153000, "unit": "M⁻¹ s⁻¹"}]}
